Measured values as given in patent publication US20140094417A1.

Molecular target: CD22 (UniProt P20273)
Assay: cell-based or functional assay

Sequence of UniProt P20273 (P20273 20-847 limits assumed): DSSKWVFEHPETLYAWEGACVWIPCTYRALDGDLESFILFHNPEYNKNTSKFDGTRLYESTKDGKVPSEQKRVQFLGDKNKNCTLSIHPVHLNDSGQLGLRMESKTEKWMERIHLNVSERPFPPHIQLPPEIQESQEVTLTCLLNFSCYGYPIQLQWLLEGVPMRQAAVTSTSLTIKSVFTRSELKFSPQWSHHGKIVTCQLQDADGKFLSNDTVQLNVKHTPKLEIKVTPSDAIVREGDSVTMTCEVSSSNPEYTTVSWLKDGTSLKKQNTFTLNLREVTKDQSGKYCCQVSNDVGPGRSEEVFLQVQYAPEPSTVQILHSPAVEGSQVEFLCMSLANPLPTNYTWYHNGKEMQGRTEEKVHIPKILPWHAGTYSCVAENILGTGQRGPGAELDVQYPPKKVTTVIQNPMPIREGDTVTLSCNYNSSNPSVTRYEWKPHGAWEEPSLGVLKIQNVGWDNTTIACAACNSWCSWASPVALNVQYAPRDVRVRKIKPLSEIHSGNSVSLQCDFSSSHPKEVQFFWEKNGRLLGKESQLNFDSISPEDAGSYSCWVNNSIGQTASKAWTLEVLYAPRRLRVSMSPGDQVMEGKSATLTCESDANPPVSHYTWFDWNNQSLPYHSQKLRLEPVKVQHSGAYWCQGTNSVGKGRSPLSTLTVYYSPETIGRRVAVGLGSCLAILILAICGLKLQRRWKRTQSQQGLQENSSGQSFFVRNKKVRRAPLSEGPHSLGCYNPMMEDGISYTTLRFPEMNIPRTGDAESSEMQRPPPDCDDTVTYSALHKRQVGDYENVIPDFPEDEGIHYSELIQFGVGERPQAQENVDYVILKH

Row | Substance | IC50 (ng/ml), cytotoxic activity on CA46 | IC50 (ng/ml), cytotoxic activity on Daudi | IC50 (ng/ml), cytotoxic activity on Raji | activity on CA46 relative to HA22-LR | activity on Daudi relative to HA22-LR | activity on Raji relative to HA22-LR
1 | HA22-LO10 | 0.38 ng/mL | 0.3 ng/mL | 1.5 ng/mL | 29% | 60% | 27%
2 | HA22-LR | 0.11 ng/mL | 0.18 ng/mL | 0.41 ng/mL | – | – | –
